B1: KLHL13 (parent)
chain: TGEFLKLPFERLAFVLSSNSLKHC

Variants of: B1
Test: protein stability index of a GFP-peptide fusion (GPS, HEK-293T) (PSI 1-6); higher = more stable
Conditions: c terminus: a fixed tail appended
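Further: lentivirally expressed fusions sorted by FACS into six bins by GFP to DsRed ratio, PSI derived from sequencing read proportions per bin multiplied by bin number.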

Variant	protein stability index
TGEFLKLPFERVAFVLSSNSLKHC	1.44
TGEFLKLPFERCAFVLSSNSLKHC	3.25
TGEFLKLPFERTAFVLSSNSLKHC	1.53
TGEFLKLPFERQAFVLSSNSLKHC	2.11
TGEFLKLPFEREAFVLSSNSLKHC	1.96
TGEFLKLPFERNAFVLSSNSLKHC	2.15
TGEFLKLPFERDAFVLSSNSLKHC	2.38
TGEFLKLPFERYAFVLSSNSLKHC	1.76
TGEFLKLPFERKAFVLSSNSLKHC	2.12
TGEFLKLPFERRAFVLSSNSLKHC	2.35
TGEFLKLPFERGAFVLSSNSLKHC	2.83
TGEFLKLPFERAAFVLSSNSLKHC	1.99
TGEFLKLPFERMAFVLSSNSLKHC	3.48
TGEFLKLPFERPAFVLSSNSLKHC	1.77
TGEFLKLPFERHAFVLSSNSLKHC	2.27
TGEFLKLPFERFAFVLSSNSLKHC	3.73
TGEFLKLPFERSAFVLSSNSLKHC	1.92
TGEFLKLPFERLAFVNSSNSLKHC	2.93
TGEFLKLPFERLAFVPSSNSLKHC	2.33
TGEFLKLPFERLAFVGSSNSLKHC	2.23
TGEFLKLPFERLAFVDSSNSLKHC	2.37
TGEFLKLPFERLAFVRSSNSLKHC	2.21
TGEFLKLPFERLAFVHSSNSLKHC	1.89
TGEFLKLPFERLAFVISSNSLKHC	2.89

Variant	protein stability index
TGEFLKLPFERLAFVVSSNSLKHC	3.18
TGEFLKLPFERLAFVASSNSLKHC	1.74
TGEFLKLPFERLAFVKSSNSLKHC	2.65
TGEFLKLPFERLAFVYSSNSLKHC	1.93
TGEFLKLPFERLAFVTSSNSLKHC	1.75
TGEFLKLPFERLAFVWSSNSLKHC	2.23
TGEFLKLPFERLAFVCSSNSLKHC	1.39
TGEFLKLPFERLAFVMSSNSLKHC	2.25
TGEFLKLPFERLAFVQSSNSLKHC	2.24
TGEFLKLPFERLAFVESSNSLKHC	2.42
TGEFLKLPFERLAFVSSSNSLKHC	2.68
TGERLKLPFERLAFVLSSNSLKHC	1.13
TGESLKLPFERLAFVLSSNSLKHC	3.3
TGEWLKLPFERLAFVLSSNSLKHC	2.03
TGEPLKLPFERLAFVLSSNSLKHC	1.62
TGEYLKLPFERLAFVLSSNSLKHC	2.4
TGEFLKLPFSRLAFVLSSNSLKHC	2.96
TGEFLKLPFMRLAFVLSSNSLKHC	3.02
TGEFLKLPFRRLAFVLSSNSLKHC	4.24
TGEFLKLPFWRLAFVLSSNSLKHC	3.59
TGEFLKLPFDRLAFVLSSNSLKHC	3.16
TGEFLKLPFPRLAFVLSSNSLKHC	2.75
TGEFLKLPFCRLAFVLSSNSLKHC	2.48
TGEFLKLPFTRLAFVLSSNSLKHC	2.76

Variant	protein stability index
TGEFLKLPFKRLAFVLSSNSLKHC	2.76
TGEFLKLPFGRLAFVLSSNSLKHC	2.42
TGEFLKLPFARLAFVLSSNSLKHC	3.65
TGEFLKLPFHRLAFVLSSNSLKHC	2.69
TGEFLKLPFLRLAFVLSSNSLKHC	2.88
TGEFLKLPFYRLAFVLSSNSLKHC	3.3
TGEFLKLPFQRLAFVLSSNSLKHC	2.03
TGEFLKLPFNRLAFVLSSNSLKHC	1.99
TGEFLKKPFERLAFVLSSNSLKHC	1.86
TGEFLKAPFERLAFVLSSNSLKHC	1.73
TGEFLKEPFERLAFVLSSNSLKHC	1.08
TGEFLKQPFERLAFVLSSNSLKHC	1.19
TGEFLKDPFERLAFVLSSNSLKHC	1.25
TGEFLKIPFERLAFVLSSNSLKHC	3.09
TGEFLKTPFERLAFVLSSNSLKHC	3.88
TGEFLKPPFERLAFVLSSNSLKHC	2.87
TGEFLKWPFERLAFVLSSNSLKHC	4.29
TGEFLKLPCERLAFVLSSNSLKHC	1.82
TGEFLKLPGERLAFVLSSNSLKHC	2.18
TGEFLKLPYERLAFVLSSNSLKHC	2.7
TGEFLKLPDERLAFVLSSNSLKHC	2.04
TGEFLKLPHERLAFVLSSNSLKHC	1.71
TGEFLKLPSERLAFVLSSNSLKHC	2.07
TGEFLKLPPERLAFVLSSNSLKHC	2.04

Variant	protein stability index
TGEFLKLPIERLAFVLSSNSLKHC	3.04
TGEFLKLPMERLAFVLSSNSLKHC	3.01
TGEFLKLPWERLAFVLSSNSLKHC	3.18
TGEFLKLPEERLAFVLSSNSLKHC	2.22
TGEFLKLPRERLAFVLSSNSLKHC	1.65
TGEFLKLPQERLAFVLSSNSLKHC	2.6
TGEFLKLPNERLAFVLSSNSLKHC	1.8
TGEFLKLPLERLAFVLSSNSLKHC	3.5
TGEFLKLPAERLAFVLSSNSLKHC	2.33
TGEFLKLPTERLAFVLSSNSLKHC	1.65
TGEFLKLPVERLAFVLSSNSLKHC	2.23
TGEFLKLPKERLAFVLSSNSLKHC	2.56
TGEFLILPFERLAFVLSSNSLKHC	2.34
TGEFLLLPFERLAFVLSSNSLKHC	3.24
TGEFLTLPFERLAFVLSSNSLKHC	2.73
TGEFLDLPFERLAFVLSSNSLKHC	1.38
TGEFLALPFERLAFVLSSNSLKHC	3.83
TGEFLCLPFERLAFVLSSNSLKHC	2.54
TGEFLPLPFERLAFVLSSNSLKHC	2.01
TGEFLSLPFERLAFVLSSNSLKHC	3.28
TGEFLKLNFERLAFVLSSNSLKHC	2.66
TGEFLKLQFERLAFVLSSNSLKHC	1.41
TGEFLKLYFERLAFVLSSNSLKHC	4.25
TGEFLKLCFERLAFVLSSNSLKHC	1.84

Variant	protein stability index
TGEFLKLDFERLAFVLSSNSLKHC	1.58
TGEFLKLMFERLAFVLSSNSLKHC	3.97
TGEFLKLTFERLAFVLSSNSLKHC	3.92
TGEFLKLPFERLAFFLSSNSLKHC	2.39
TGEFLKLPFERLAFQLSSNSLKHC	2.31
TGEFLKLPFERLAFELSSNSLKHC	1.78
TGEFLKLPFERLAFTLSSNSLKHC	1.59
TGEFLKLPFERLAFHLSSNSLKHC	2.27
TGEFLKLPFERLAFYLSSNSLKHC	1.06
TGEFLKLPFERLAFDLSSNSLKHC	1.82
TGEFLKLPFERLAFILSSNSLKHC	2
TGEFLKLPFERLAFRLSSNSLKHC	1.53
TGEFLKLPFERLAFGLSSNSLKHC	3.31
TGEFLKLPFERLAFCLSSNSLKHC	2.21
TGEFLKLPFERLAFMLSSNSLKHC	1.96
TGEFLKLPFERLAFWLSSNSLKHC	3.3
TGEFLKLPFERLAFNLSSNSLKHC	1.95
TGEFLKLPFERLAFPLSSNSLKHC	2.53
TGEFLKLPFERLAFALSSNSLKHC	1.84
TGEFLKLPFERLAFSLSSNSLKHC	2.32
TGEFLKLPFERLAFLLSSNSLKHC	3.05
TGEFLKLPFERLAFKLSSNSLKHC	1.81
TGEFLKLPFERLAFVLLSNSLKHC	2.06
TGEFLKLPFERLAFVLCSNSLKHC	5.02

Variant	protein stability index
TGEFLKLPFERLAFVLMSNSLKHC	2.2
TGEFLKLPFERLAFVLASNSLKHC	3.79
TGEFLKLPFERLAFVLDSNSLKHC	1.06
TGEFLKLPFERLAFVLESNSLKHC	1.86
TGEFLKLPFERLAFVLISNSLKHC	1.71
TGEFLKLPFERLAFVLKSNSLKHC	1.05
TGEFAKLPFERLAFVLSSNSLKHC	1.6
TGEFTKLPFERLAFVLSSNSLKHC	2.54
TGEFRKLPFERLAFVLSSNSLKHC	2.16
TGEFNKLPFERLAFVLSSNSLKHC	1.52
TGEFKKLPFERLAFVLSSNSLKHC	1.85
TGEFCKLPFERLAFVLSSNSLKHC	2.26
TGEFEKLPFERLAFVLSSNSLKHC	1.72
TGEFQKLPFERLAFVLSSNSLKHC	2.06
TGEFHKLPFERLAFVLSSNSLKHC	1.78
TGEFDKLPFERLAFVLSSNSLKHC	2.48
TGEFYKLPFERLAFVLSSNSLKHC	1.8
TGEFLKLPFERLANVLSSNSLKHC	2.33
TGEFLKLPFERLAYVLSSNSLKHC	2.36
TGEFLKLPFERLASVLSSNSLKHC	2.21
TGEFLKLPFERLALVLSSNSLKHC	2.31
TGEFLKLPFERLAKVLSSNSLKHC	1.79
TGEFLKLPFERLAQVLSSNSLKHC	1.66
TGEFLKLPFERLARVLSSNSLKHC	1.4

Variant	protein stability index
TGEFLKLPFERLAAVLSSNSLKHC	1.42
TGEFLKLPFERLACVLSSNSLKHC	1.95
TGEFLKLPFERLAVVLSSNSLKHC	1.13
TGEFLKLPFERLATVLSSNSLKHC	2.21
TGEFLKLPFERLAEVLSSNSLKHC	2.33
TGEFLKLPFERLADVLSSNSLKHC	1.98
TGEFLKLPFERLAPVLSSNSLKHC	2.69
TGEFLKLPFERLAWVLSSNSLKHC	3.04
TGEFLKLPFERLAHVLSSNSLKHC	1.8
TGEFLKLPFERLAGVLSSNSLKHC	2.54
TGEFLKLPFERLAMVLSSNSLKHC	2.74
TGEFLKLPFEMLAFVLSSNSLKHC	3.39
TGEFLKLPFECLAFVLSSNSLKHC	2.12
TGEFLKLPFEQLAFVLSSNSLKHC	3.1
TGEFLKLPFEELAFVLSSNSLKHC	2.48
TGEFLKLPFEKLAFVLSSNSLKHC	3.47
TGEFLKLPFEALAFVLSSNSLKHC	3.93
TGEFLKLPFESLAFVLSSNSLKHC	3.23
TGEFLKLPFEPLAFVLSSNSLKHC	3.17
TGEFLKLPFEFLAFVLSSNSLKHC	3.1
TGEFLKLPFEYLAFVLSSNSLKHC	4.43
TGEFLKLPFEVLAFVLSSNSLKHC	3.99
TGEFLKLPFENLAFVLSSNSLKHC	3.3
TGEFLKLPFEDLAFVLSSNSLKHC	2.08

Variant	protein stability index
TGEFLKLPFETLAFVLSSNSLKHC	4.01
TGEFLKLPFEHLAFVLSSNSLKHC	1.62
TGEFLKLPFEGLAFVLSSNSLKHC	2.54
TGEFLKLPFEWLAFVLSSNSLKHC	2.11
TGEFLKLPFERLHFVLSSNSLKHC	1.72
TGEFLKLPFERLRFVLSSNSLKHC	1.85
TGEFLKLPFERLFFVLSSNSLKHC	1.67
TGEFLKLPFERLQFVLSSNSLKHC	2.26
TGEFLKLPFERLDFVLSSNSLKHC	2.08
TGEFLKLPFERLYFVLSSNSLKHC	3.93
TGEFLKLPFERLSFVLSSNSLKHC	1.99
TGEFLKLPFERLCFVLSSNSLKHC	2.41
TGEFLKLPFERLTFVLSSNSLKHC	2.76
TGEFLKLPFERLPFVLSSNSLKHC	3.04
TGEFLKLPFERLNFVLSSNSLKHC	1.93
TGEFLKLPFERLEFVLSSNSLKHC	1.71
TGEFLKLPFERLIFVLSSNSLKHC	3.35
TGEFLKLPFERLMFVLSSNSLKHC	3.12
TGEFLKLPFERLGFVLSSNSLKHC	1.6
TGEFLKLPFERLKFVLSSNSLKHC	1.98

— the supplement of paper PMC10567573
